Reference: patent publication US5180667A, “Genes encoding eglin C mutants” (Ciba-Geigy Corporation, priority 1988, dated 1993)

Biological target: trypsin
Assay: Inhibition constant Ki, steady-state release of p-nitroaniline, trypsin
Assay type: biochemical
Settings: only inhibitor concentration varied
Procedure: The determination of the inhibition constants Ki is carried out according to N. Braun et al. [Biol. Chem. Hoppe-Seyler 368, 299-308 (1987)] by measuring the steady-state reaction rate of the release of p-nitroaniline from proteinase-inhibitor substrate mixtures. Only the inhibitor concentration is varied. Since the curve OD405 vs. time was linear, the release of p-nitroaniline is entered at 10 to 20 minutes. Ki can be determined from the various slopes. The proteinases used are human leukocyte elastase (HLE), chymotrypsin and trypsin.

B1: Eglin C (protein, UniProt P01051 1-70, looked up)
Eglin C: TEFGSELKSFPEVVGKTVDQAREYFTLHYPQYDVYFLPEGSPVTLDLRYNRVRVFYNPGTNVVNHVPHVG
B1 was tested, and the “Inhibition constants, trypsin Ki (M)” value was “no inhibition”.
